From patent US11584938B2, “Plant EPSPS mutant containing L195P and S247G mutations and encoding gene and use thereof” (GEVOTO LLC, priority 2017, dated 2023)

Test system: transgenic rice plants
Assay: glyphosate resistance of the EPSPS mutant in transgenic rice plants sprayed with Roundup 41% ammonium glyphosate
Format: in vivo, rice (Nipponbare)
Text: A method for detecting the glyphosate resistance of G1 (SEQ ID NO: 4) provided in Example 1, G3 (SEQ ID NO: 8) provided in Example 2, G4 (SEQ ID NO: 10) provided in Example 3, the soybean EPSPS mutant G5 (SEQ ID NO: 12) provided in Example 4, T1 (SEQ ID NO: 16) provided in Example 5, T3 (SEQ ID NO: 20) provided in Example 6, T4 (SEQ ID NO: 22) provided in Example 7, T5 (SEQ ID NO: 24) provided in Example 8, the wheat EPSPS mutant T6 (SEQ ID NO: 26) provided in Example 9, R1 (SEQ ID NO: 30) provided in Example 10, R3 (SEQ ID NO: 34) provided in Example 11, R4 (SEQ ID NO: 36) provided in Example 12, R5 (SEQ ID NO: 38) provided in Example 13, and the rice EPSPS mutant R6 (SEQ ID NO: 40) provided in Example 14 in the transgenic rice is as follows:
The plasmids (containing the EPSPS mutation gene) of the monoclonal resistant bacteria of pADV5-EPSPS in Examples 1-7 were extracted by a conventional method, followed by double enzyme digestion by Pac1 and BstEII, the small fragments were collected, and then the small fragments were ligated by using T4 DNA ligase, to the pGVP1 vectors that had undergone the same double enzyme digestion, to obtain a pGVP1-EPSPS vector having a structure as shown in FIG. 23.
EHA105 (Agrobacterium tumefaciens) competent cells were transformed by the pGVP1-EPSPS vector, and single colonies were picked up to perform bacterial colony PCR detection to identify positive strains; then the positive strains were inoculated into 1 mL of YEP culture medium containing 50 μg·mL^−1 kanamycin and 50 μg·mL^−1 rifampin to propagate, and then preserved at −80° C., or used for subsequent experiment.
400 μl of bacterium containing the target gene vector preserved at −80° C. was added to a culture dish of solid culture media containing YEP+50 μg/mL rifampin+50 μg/mL kanamycin, and cultured in the dark at 28° C. for 24 hours, then this bacterium was added to an infection culture medium, and this bacterial solution was adjusted to OD=0.2 as an infection liquid.
Sterilization and pre-culturing: mature rice (Nipponbare) seeds were manually shelled, and full seeds without bacterial plaque were selected, and sterilized according to following steps: putting the seeds into a 50 ml sterile centrifuge tube, adding 70% alcohol for disinfection for 30 seconds, pouring out the alcohol, and cleaning the seeds once with sterile water; adding 10-20 ml of 2.6% sodium hypochlorite solution for soaking and sterilizing for 20 minutes, pouring out the sodium hypochlorite solution, and soaking and cleaning the seeds with sterile water for 6-7 times, 3 minutes each time.
Induction and subculturing: the seeds were put on sterile filter paper for drying, and mature embryos were put in an induction culture medium with 12 embryos in each dish; the culture dishes were sealed with a sealing film after the operation was finished, the mature embryos were cultured in the dark at 30° C. for 21-28 days, calluses were transferred into a fresh culture medium, and continuously cultured for about 7-14 days, and spherical calluses with a size of 1-2 mm were taken as infection receptors.
the calluses were inoculated into a centrifuge tube or a culture cup, the prepared Agrobacterium tumefaciens suspension liquid was added for infection for 10 minutes, wherein the calluses were shaken several times; the bacterial solution was poured out, the calluses were taken out, and placed on sterile filter paper to suck out the surface bacterial solution (about 30 minutes); and the calluses were put on sterile filter paper in a culture dish, and cultured in the dark at 25° C. for 2-3 days.
Recovery culturing: the calluses having undergone co-culturing were inoculated in a recovery culture medium, and cultured in the dark at 30° C. for 5-7 days. First round of screening: the calluses were transferred to screening culture media 1 (S1) and cultured in the dark at 30° C. for 14 days. […]

[1] = 1× dosage 1060 g/hectare glyphosate sprayed, recorded on 10th day
[2] = 2× dosage 2120 g/hectare sprayed to plants surviving 1×, recorded 10 days later
[3] = 5× dosage 5300 g/hectare sprayed to plants surviving 2×, recorded 10 days later
[4] = 20× dosage 21200 g/hectare sprayed to plants surviving 5×, recorded 10 days later

Molecule	%++&+++ (percentage of plant having medium and high glyphosate resistance to the total number of plants observed) [1] [%]	number of plants denoted by + (low glyphosate resistance) [1]	number of plants denoted by ++ (medium glyphosate resistance) [1]	number of plants denoted by +++ (high glyphosate resistance) [1]	number of plants denoted by − (no glyphosate resistance) [1]	glyphosate resistance / survival of the rice transformed by the EPSPS, in words (1× glyphosate dosage)	%++&+++ (percentage of plant having medium and high glyphosate resistance to the total number of plants observed) [2] [%]	number of plants denoted by + (low glyphosate resistance) [2]	number of plants denoted by ++ (medium glyphosate resistance) [2]	number of plants denoted by +++ (high glyphosate resistance) [2]	number of plants denoted by − (no glyphosate resistance) [2]	&++&+++ (percentage of plant having medium and high glyphosate resistance to the total number of plants observed) [3] [%]	number of plants denoted by + (low glyphosate resistance) [3]	number of plants denoted by ++ (medium glyphosate resistance) [3]	number of plants denoted by +++ (high glyphosate resistance) [3]	number of plants denoted by − (no glyphosate resistance) [3]	&++&+++ (percentage of plant having medium and high glyphosate resistance to the total number of plants observed) [4] [%]	number of plants denoted by + (low glyphosate resistance) [4]	number of plants denoted by ++ (medium glyphosate resistance) [4]	number of plants denoted by +++ (high glyphosate resistance) [4]	other results
T0: wild-type wheat EPSPS, amino acid sequence SEQ ID NO: 14; control (protein, listed as Triticum aestivum) MATSVAAPAAPAGAEEVVLQPIREISGAVQLPGSKSLSNRILLLSALSEGTTVVDNLLNSEDVHYMLEALEALGLSVEADKVAKRAVVVGCGGRFPVEKDAKEEVKLFLGNAGTAMRPLTAAVVAAGGNATYVLDGVPRMRERPIGDLVVGLQQLGADVDCFLGTNCPPVRINGKGGLPGGKVKLSGSISSQYLSSLLMAAPLALEDVEIEIIDKLISVPYVEMTLKLMEHFGVTAEHSDSWDRFYIKGGQKYKSPGNAYVEGDASSASYFLAGAAITGGTVTVEGCGTTSLQGDVKFAEVLEMMGAKVTWTDTSVTVTGPPRQPFGRKHLKAVDVNMNKMPDVAMTLAVVALFADGPTAIRDVASWRVKETERMVAIRTELTKLGATVEEGPDYCIITPPEKLNITAIDTYDDHRMAMAFSLAACAEVPVTIRDPGCTRKTFPNYFDVLSTFVKN	0.0	1	0	0	32	had no resistance, one was seriously damaged, and all the others died	0.0	0	0	0	33	0.0	0	0	0	33	0.0	0	0	0	number of plants denoted by − (no glyphosate resistance) [4]: 33
T1: wheat EPSPS mutant, SEQ ID NO: 16, mutation S269(247)G (protein) MATSVAAPAAPAGAEEVVLQPIREISGAVQLPGSKSLSNRILLLSALSEGTTVVDNLLNSEDVHYMLEALEALGLSVEADKVAKRAVVVGCGGRFPVEKDAKEEVKLFLGNAGTAMRPLTAAVVAAGGNATYVLDGVPRMRERPIGDLVVGLQQLGADVDCFLGTNCPPVRINGKGGLPGGKVKLSGSISSQYLSSLLMAAPLALEDVEIEIIDKLISVPYVEMTLKLMEHFGVTAEHSDSWDRFYIKGGQKYKSPGNAYVEGDASSAGYFLAGAAITGGTVTVEGCGTTSLQGDVKFAEVLEMMGAKVTWTDTSVTVTGPPRQPFGRKHLKAVDVNMNKMPDVAMTLAVVALFADGPTAIRDVASWRVKETERMVAIRTELTKLGATVEEGPDYCIITPPEKLNITAIDTYDDHRMAMAFSLAACAEVPVTIRDPGCTRKTFPNYFDVLSTFVKN	27.0	28	15	2	18	obviously superior to that of the rice seedlings transformed by T0	1.6	32	1	0	30	0.0	2	0	0	61	0.0	0	0	0	glyphosate resistance / survival of the rice transformed by the EPSPS, in words (2× glyphosate dosage): some of the transgenic rice seedlings transformed by T4, T1 and T5 still survived; glyphosate resistance / survival of the rice transformed by the EPSPS, in words (5× glyphosate dosage): some of the transgenic rice seedlings transformed by T4, T1 and T5 still survived; number of plants denoted by − (no glyphosate resistance) [4]: 63
